Data taken from patent US5985836A, “Alpha-1 proteinase inhibitor binding peptides” (Bayer Corporation, priority 1998, dated 1999).
Ends that are not written are not given here.

Experiments:
[1] = target: T1, A1PI (Homo sapiens, UniProt P01009); assay: A1PI binding on peptide-resin column, injection of 1 mg A1PI in equilibration buffer; conditions: 1 mg A1PI in equilibration buffer
T1 construct: Human plasma is currently the only approved source of therapeutic AlPI
How it was run: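 Peptides synthesized on A-Totda-Toyopearl chelate resin (0.1 mmole/g) packed in 0.4×5 cm columns; 1 mg A1PI injected in equilibration buffer at 4 °C or 20 °C, 865 or 523 μl/min. Flowthrough, 1M/3M NaCl washes and 2% acetic acid eluate quantified by A280 or immunonephelometry as percent of total eluted.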

[2] = target: T1, A1PI; assay: A1PI purification from 5 mg hSA + 1 mg A1PI on peptide column, A1PI mass balance; type: binding; conditions: for Mass AlPI Eluted in Acid Eluate: nephelometry; for Percent Eluted by Fraction, 1M NaCl / Percent Eluted by Fraction, 2% Ac. Acid / Percent Eluted by Fraction, 3M NaCl / Percent Eluted by Fraction, Flow: relative to total eluted
Protocol: Confirmatory binding assays were performed in a column chromatographic format on a microbore HPLC using individual peptide sequences synthesized directly onto the Toyopearl 650 M Chelate resin which had been modified with Totda followed by an alanine residue (A-Totda-Toyopearl), at a final substitution density of 0.1 mmole/g resin. The resin was packed into 0.4×5 cm columns (Thomson, Springfield, Va.) and tested on the Michrom HPLC system (Michrom BioResources, Auburn, Calif.). The elution program for all trials utilized the following method. The column was pre-equilibrated with equilibration buffer (as above). 1 ml of sample was injected and allowed sufficient time to flowthrough the column using equilibration buffer. The column was then washed with step elutions of 1M NaCl and 3M NaCl in equilibration buffer. The column was exposed to equilibration buffer with 0.1M NaCl. Any remaining protein was eluted with elution buffer (2% by volume glacial acetic acid in water).
A Gilson FC204 fraction collector at the HPLC outlet collected individual eluates for further analysis. Fractions collected from the 2% acetic acid eluates were neutralized with 2M Tris, pH 10.5 to bring the pH to neutrality. The protein samples were reconstituted in equilibration buffer unless otherwise stated. The samples were analyzed by the integration of the absorbance at 280 nm or by immunonephelometry. The specific method of determination is presented for each figure.
Columns were assayed with a mixture of 5 mg human serum albumin (hSA)+1 mg AlPI at 4° C. (Table 4, Seq. ID 1-11, 15, 17) and 20° C. (Table 5, Seq. ID 1-10, 13, 15, 17). The chromatography method was modified to provide for a 10 minute residence time of sample in the column by decreasing the flow to 17 μl/min (10 cm/hr) upon injection. Following the incubation, the flow was set at 865 μl/min (413 cm/hr) for the step elutions of 1M NaCl, 3M NaCl, and 2% acetic acid. The mass balances presented are based upon immunonephelometry. The Percent Eluted value is protein-specific and based on the amount of the protein eluted in a […]

[3] = target: T1, A1PI; assay: Purification of A1PI from Effluent II+III on peptide column, A1PI mass balance; type: binding; conditions: A1PI, 1 ml Eff. II+III, 4° C.
Protocol: (§1) Sequences 1-11 and 15 were assayed with Effluent II+III (Eff. II+III). Eff. II+III is a process intermediate in the Cohn plasma fractionation process. The feed stream contains 20% (by volume) ethanol, 20-25 mg/ml hSA and approximately 1 mg/ml AlPI. The stream also contains other proteins including anti-thrombin III (AT3), immunoglobin G (IgG), immunoglobin A (IgA), apolipoprotein alpha-1 (Apo A-1), transferrin (Trf), haptoglobin (Hpt), and alpha-1 acid glycoprotein (AAG) at concentrations ranging from 0.1-1 mg/ml.
(§2) The columns were assayed using the same technique as the hSA+AlPI experiments, allowing for a 10 minute residence time followed by a constant flow rate of 865 μl/min with step elutions of 1M NaCl, 3M NaCl, and 2% acetic acid. All experiments were conducted at 4° C. The mass balances for the injection of 1 ml Eff. […] The AlPI was enriched from 3% of the total protein in the feed to upwards of 50% in the acid eluate.

[4] = target: T2, apolipoprotein alpha-1 (Apo A-1) (Homo sapiens, UniProt P02647); assay: Purification from Effluent II+III, Apo A-1 mass balance; type: binding; conditions: 1 ml Eff. II+III, 4° C.
T2 construct: Eff; II+III is a process intermediate in the Cohn plasma fractionation process; tissue Bayer Corporation (Clayton, N.C.); host or cells: plasma fraction: Cohn Effluent II+III
T2 sequence (P02647 19-267): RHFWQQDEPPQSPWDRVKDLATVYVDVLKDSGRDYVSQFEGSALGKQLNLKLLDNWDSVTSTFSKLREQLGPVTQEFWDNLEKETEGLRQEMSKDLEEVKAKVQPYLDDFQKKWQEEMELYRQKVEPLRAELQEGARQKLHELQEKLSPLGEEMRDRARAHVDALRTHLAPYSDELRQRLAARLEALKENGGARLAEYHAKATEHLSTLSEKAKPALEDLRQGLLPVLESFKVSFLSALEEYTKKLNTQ
Protocol: as §1, §2

[5] = system: Immunoglobulin G (IgG); assay: Purification from Effluent II+III, IgG mass balance; type: binding, human; conditions: 1 ml Eff. II+III, 4° C.
Protocol: as §1, §2

[6] = system: Immunoglobulin A (IgA); assay: Purification from Effluent II+III, IgA mass balance; type: binding, human; conditions: 1 ml Eff. II+III, 4° C.
Protocol: as §1, §2

[7] = A1PI, 5 mg hSA + 1 mg A1PI, 4° C., * Below detection limit
[8] = A1PI, 5 mg hSA + 1 mg A1PI, 4° C.
[9] = A1PI, 5 mg hSA + 1 mg A1PI, 20° C., * Below detection limit
[10] = A1PI, 5 mg hSA + 1 mg A1PI, 20° C.
[11] = * as in Tables 4, 5 (below detection limit)

T1 sequence (P01009 25-418): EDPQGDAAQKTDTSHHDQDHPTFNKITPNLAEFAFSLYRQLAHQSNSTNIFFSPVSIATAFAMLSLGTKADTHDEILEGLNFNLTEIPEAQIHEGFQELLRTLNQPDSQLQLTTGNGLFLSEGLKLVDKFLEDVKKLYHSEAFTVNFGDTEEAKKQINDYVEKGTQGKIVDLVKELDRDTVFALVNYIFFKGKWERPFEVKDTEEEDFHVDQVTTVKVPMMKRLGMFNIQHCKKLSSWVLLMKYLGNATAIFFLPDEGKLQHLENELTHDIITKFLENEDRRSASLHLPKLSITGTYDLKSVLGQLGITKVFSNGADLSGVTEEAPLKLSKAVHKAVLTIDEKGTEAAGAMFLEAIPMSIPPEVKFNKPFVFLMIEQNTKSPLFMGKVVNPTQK

RLWRYG
Percent A1PI Eluted by Fraction Based on Absorbance at 280 nm, 1M NaCl ([1]; 4° C.): 88% | Percent A1PI Eluted by Fraction Based on Absorbance at 280 nm, 2% Acetic Acid ([1]; 4° C.): 12% | Percent A1PI Eluted by Fraction Based on Absorbance at 280 nm, Flowthrough ([1]; 4° C.): 0% | Percent A1PI Eluted by Fraction, 1M NaCl ([1]; 20° C.): 88% | Percent A1PI Eluted by Fraction, 2% Acetic Acid ([1]; 20° C.): 12% | Percent A1PI Eluted by Fraction, Flowthrough ([1]; 20° C.): 0% | Mass AlPI Eluted in Acid Eluate ([2]; 250 μg AlPI injected with 5 mg hSA, 20° C.): 0.07 mg | Mass AlPI Eluted in Acid Eluate ([2]; 500 μg AlPI injected with 5 mg hSA, 20° C.): 0.15 mg | Mass AlPI Eluted in Acid Eluate ([2]; 1000 μg AlPI injected with 5 mg hSA, 20° C.): 0.39 mg | Mass Protein per Eluate Fraction, 1M NaCl [2, 7]: 0.50 mg | Mass Protein per Eluate Fraction, 2% Ac. Acid [2, 7]: 0.11 mg | Mass Protein per Eluate Fraction, Flow [2, 7]: 0.01 mg | Percent Eluted by Fraction, 1M NaCl [2, 8]: 80% | Percent Eluted by Fraction, 2% Ac. Acid [2, 8]: 18% | Percent Eluted by Fraction, 3M NaCl [2, 8]: 0% | Percent Eluted by Fraction, Flow [2, 8]: 2% | Mass Protein per Eluate Fraction, 1M NaCl [2, 9]: 0.42 mg | Mass Protein per Eluate Fraction, 2% Ac. Acid [2, 9]: 0.45 mg | Mass Protein per Eluate Fraction, 3M NaCl [2, 9]: 0.00 mg | Percent Eluted by Fraction, 1M NaCl [2, 10]: 48% | Percent Eluted by Fraction, 2% Ac. Acid [2, 10]: 52% | Percent Eluted by Fraction, 3M NaCl [2, 10]: 0% | Percent Eluted by Fraction, Flow [2, 10]: 0% | Percent Eluted by Fraction, 1M NaCl [3]: 22% | Percent Eluted by Fraction, 2% Acetic Acid [3]: 14% | Percent Eluted by Fraction, 3M NaCl [3]: 0% | Percent Eluted by Fraction, Flow [3]: 64% | Mass Protein per Eluate Fraction, 1M NaCl [3, 11]: 0.20 mg | Mass Protein per Eluate Fraction, 2% Acetic Acid [3, 11]: 0.13 mg | Mass Protein per Eluate Fraction, Flow [3, 11]: 0.59 mg | Percent Eluted by Fraction, 1M NaCl [4]: 0% | Percent Eluted by Fraction, 2% Acetic Acid [4]: 100% | Percent Eluted by Fraction, 3M NaCl [4]: 0% | Percent Eluted by Fraction, Flow [4]: 0% | Mass Protein per Eluate Fraction, 2% Acetic Acid [4, 11]: 0.35 mg | Percent Eluted by Fraction, 1M NaCl [5]: 0% | Percent Eluted by Fraction, 2% Acetic Acid [5]: 0% | Percent Eluted by Fraction, 3M NaCl [5]: 0% | Percent Eluted by Fraction, Flow [5]: 100% | Mass Protein per Eluate Fraction, Flow [5, 11]: 0.27 mg | Percent Eluted by Fraction, 1M NaCl [6]: 0% | Percent Eluted by Fraction, 2% Acetic Acid [6]: 31% | Percent Eluted by Fraction, 3M NaCl [6]: 0% | Percent Eluted by Fraction, Flow [6]: 69% | Mass Protein per Eluate Fraction, 2% Acetic Acid [6, 11]: 0.09 mg | Mass Protein per Eluate Fraction, Flow [6, 11]: 0.19 mg
